The target in test [1] is long-form human leptin receptor, OB-Rb (human) (UniProt P48357). The test can be described thus: 125I-human leptin binding to HEK293 cells stably transfected with human OB-Rb.
The next test has as its target T1, human CRP (Homo sapiens, UniProt P02741).
T1 construct: purchased CHEMICON or EMD Biosciences
T1 sequence (P02741 19-224): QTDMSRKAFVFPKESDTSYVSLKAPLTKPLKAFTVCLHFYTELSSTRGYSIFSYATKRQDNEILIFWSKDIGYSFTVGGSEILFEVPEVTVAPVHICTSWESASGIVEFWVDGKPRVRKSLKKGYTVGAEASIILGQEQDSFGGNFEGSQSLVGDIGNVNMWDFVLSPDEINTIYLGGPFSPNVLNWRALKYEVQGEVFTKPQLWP
Put plainly: Polypeptide blocking of human CRP inhibition of leptin-stimulated STAT3 tyrosine phosphorylation in HEK-293 cells over-expressing OB-Rb. The format is cell-based. The settings on record: for restoration of leptin-stimulated STAT3 activation in presence of human CRP, Example 8 comparison: human CRP 8 μg/ml, human leptin 2 nM, 1 hour pre-incubation, up to 0.8 μM (800 nM); for effect of polypeptide by itself on STAT phosphorylation: control, polypeptide alone; for blocking of the inhibitory effect of human CRP on leptin signaling (STAT3 tyrosine phosphorylation): polypeptide pre-incubated with human CRP 30 minutes, then human leptin 45 minutes. As for the experimental part:
In the in vitro experiment, each of these polypeptide was pre-incubated with human CRP for 30 minutes before being mixed with human leptin for an additional 45 minutes. The resultant mixture was then added to the HEK-293 cells over-exprssing the long form leptin receptors, OB-Rb. After a 30-minute incubation, the cells were harvested in a protein extraction buffer (18). The signaling of leptin in the cells, measured by its ability to stimulate tyrosine phosphorylation on STAT3 in a western blot assay, was evaluated (see FIGS. 8, 9, 10 for polypeptides B, C1 and E, respectively).
Pursuant to an in vitro protocol similar to that described in Example 6, a hexamer disclosed in U.S. Pat. No. 6,777,388, NH2—S—C—H-L-P—W—COOH (SEQ ID NO:18), was pre-incubated with human CRP (8 μg/ml) and human leptin (2 nM) for 1 hour. The resultant mixture then was added to HEK-293 cells that over-expressed the long form leptin receptor, OB—Rb. After a 30-minute incubation, the cells were harvested in a protein extraction buffer. To evaluate signaling of human leptin in the cells, tyrosine phosphorylation on STAT3 was measured in a western blot assay.

Test [2] has as its system tyrosine phosphorylation of STAT3. The test can be described thus: Leptin-induced tyrosine phosphorylation of STAT3 in HEK293 cells over-expressing OB-Rb in the presence of CRP (Western blot). The format is cell-based, human. The settings on record: separate control, concentrations much higher than CRP. As for the experimental part:
To determine if the interaction between CRP and leptin dampens the cellular actions of leptin, the ability of leptin to stimulate tyrosine phosphorylation of STAT3 and PI3-kinase activity was assessed in the presence of CRP in vitro. HEK293 cells over-expressing OB-Rb were serum starved for 2 hours before addition of leptin and CRP (CHEMICON or EMD Biosciences). Leptin, in the presence or absence of CRP, was pre-incubated in μ-MEM (with additional 1 mM Ca^2+) for 30 minutes at 37° C. before being applied to the cells. After a 30-minute incubation with leptin, the cells were harvested in lysis buffer (18). The resultant protein extract was subjected to a Western blot analysis using an anti-phospho-STAT3 specific antibody (Cell Signaling, Beverly, Mass.). For studies involving primary hypothalamic neurons, the hypothalamus from rats was surgically isolated immediately after euthanasia, and placed in the DMEM for incubation with leptin in the presence or absence of CRP.
(Immunoblotting shows a protein as a band on a membrane.)

Test [3] deals with ob/ob mice. The test can be described thus: Co-infusion of polypeptide E with human CRP and leptin through mini-osmotic pumps into ob/ob mice. The format is in vivo, mouse. The following applies: for restoration of satiety and weight-reducing effects of human leptin (food intake, body weight): Pep-E 24 or 48 μg/day/mouse with human CRP 48 μg/day/mouse and leptin 12 μg/day/mouse. As for the experimental part:
FIG. 11. […] Infusion dosages for human CRP and leptin were 48 μg/day/mouse and 12 μg/day/mouse, respectively. The infusion rate for Pep-E (P) was 24 μg/day/mouse (medium dosage, “m”) and 48 μg/day/mouse (high dosage, “h”). Food-intake (A and C) and body weight (B and D) were monitored daily throughout the infusion. The arrows in A-D indicate the day of surgery. At the end of infusion, blood samples were collected for the measurement of blood-glucose, human CRP, and human leptin. The serum concentrations of human CRP and human leptin were 0.85±0.1 μg/ml and 18 ng±2 ng/ml, respectively. […] Also shown is glucose concentration from mice infused with human CRP and leptin but not with Pep-E.
In the in vivo experiment, polypeptide E was co-infused through mini-osmotic pumps with human CRP and leptin into the ob/ob mice. Food intake in the period of 24 hours and body weight were followed during the infusion period (FIGS. 11A-11D).

For the next test, the target named is T2, rat C-reactive protein (rat, UniProt P48199 20-230).
T2 construct: mature; also called rat CRP; rat SLIP-1
T2 sequence (looked up): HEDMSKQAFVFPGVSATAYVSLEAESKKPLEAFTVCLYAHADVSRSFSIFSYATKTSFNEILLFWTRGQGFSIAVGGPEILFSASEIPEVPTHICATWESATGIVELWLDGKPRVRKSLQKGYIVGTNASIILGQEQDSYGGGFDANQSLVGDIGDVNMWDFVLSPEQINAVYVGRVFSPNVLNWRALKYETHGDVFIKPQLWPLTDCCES
The test can be described thus: rat serum on mouse leptin-Sepharose affinity column; eluted band identified by MALDI-TOF. As for the experimental part:
Retained material was eluted with an acidic glycine solution, and the eluate was immediately neutralized in a Tris-buffer (50 mM, pH=9.5).
The mass-spec assay was performed on Thermo Finnigan LTQ mass spectrometer by CTO-BIO Services (Rockville, Md.). Data analysis was carried out with the Turbo-Sequest software.

The subject of test [4] is ob/ob mice. The test can be described thus: Intracerebralventricular (i.c.v.) injection of human CRP and leptin in ob/ob mice, food intake and body weight. Type of test: in vivo, mouse.
A further test has as its target T3, human leptin (human, UniProt P41159 22-167, 125I-labelled (Iodogen method) in the receptor binding assay of Example 3).
T3 construct: Recombinant human leptin from AF Parlow, NHPP; also called recombinant human leptin
The test can be described thus: human CRP pre-incubated with 125I-human leptin (~2 ng/ml); inhibition of leptin binding to OB-Rb on HEK293 cells. As for the experimental part: After 10-minute incubation at room temperature, the reaction was stopped with 100 μl 0.1% trifluoroacetic acid (TFA). The reaction mixture was immediately purified by reverse-phase HPLC. The separation employed a 5-minute isocratic step at 20% eluant B in A, followed by two consecutive 30 min linear gradients from 20 to 50%, then from 50 to 60% eluant B in A (where eluant A is water containing 0.1% TFA and eluant B is acetonitrile containing 0.1% TFA) at a flow rate of 1.5 ml/min. […] The incubation would last for 3 hour at 4° C. before the media was aspirated and the cells were dissolved in 0.1N NaOH for scintillation counting.

Setting [5] is: mouse leptin i.c.v. after human CRP.

“Also recorded” adds a separate entry of the source.

Sequence of long-form human leptin receptor, OB-Rb (human) (P48357 22-1165): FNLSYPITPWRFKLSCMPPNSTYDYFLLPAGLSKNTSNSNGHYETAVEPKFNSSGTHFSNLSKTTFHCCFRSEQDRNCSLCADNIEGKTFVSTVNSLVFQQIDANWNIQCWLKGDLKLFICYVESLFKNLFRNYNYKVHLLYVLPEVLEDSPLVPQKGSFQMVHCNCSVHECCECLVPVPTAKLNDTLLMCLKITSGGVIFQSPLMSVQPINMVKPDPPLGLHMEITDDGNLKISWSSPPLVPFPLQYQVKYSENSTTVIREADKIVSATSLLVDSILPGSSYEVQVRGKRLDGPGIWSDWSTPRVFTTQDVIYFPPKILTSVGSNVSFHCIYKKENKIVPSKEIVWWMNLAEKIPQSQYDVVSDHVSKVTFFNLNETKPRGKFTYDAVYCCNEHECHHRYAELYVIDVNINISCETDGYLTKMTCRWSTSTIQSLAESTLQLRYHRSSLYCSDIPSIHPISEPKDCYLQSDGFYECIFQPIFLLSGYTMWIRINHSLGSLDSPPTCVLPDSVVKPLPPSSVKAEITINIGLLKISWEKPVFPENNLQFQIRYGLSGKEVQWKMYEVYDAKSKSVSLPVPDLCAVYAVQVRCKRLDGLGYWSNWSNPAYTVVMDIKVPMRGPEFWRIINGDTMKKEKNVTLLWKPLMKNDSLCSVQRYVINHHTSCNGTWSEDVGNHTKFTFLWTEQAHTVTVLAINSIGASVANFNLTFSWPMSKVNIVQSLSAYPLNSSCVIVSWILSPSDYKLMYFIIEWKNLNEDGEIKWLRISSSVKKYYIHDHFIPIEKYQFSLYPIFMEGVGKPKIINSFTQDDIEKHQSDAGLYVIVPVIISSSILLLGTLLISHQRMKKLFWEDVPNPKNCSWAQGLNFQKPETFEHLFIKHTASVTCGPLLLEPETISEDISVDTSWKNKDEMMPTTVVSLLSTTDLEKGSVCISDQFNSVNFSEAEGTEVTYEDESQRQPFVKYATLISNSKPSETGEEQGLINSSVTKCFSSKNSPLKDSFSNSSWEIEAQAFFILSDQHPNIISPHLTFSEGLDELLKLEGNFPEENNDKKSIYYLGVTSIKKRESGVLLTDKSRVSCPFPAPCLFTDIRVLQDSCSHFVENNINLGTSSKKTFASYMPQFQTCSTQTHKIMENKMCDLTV

By Kd is commonly meant a measure of binding affinity in units of concentration. In test [1], “human leptin (from UniProt P41159 22-167) (ligand)” yielded a Kd of 1 nM.

On to “H-WPLHCS-OH [D-form, reference compound]”, for which, at human CRP, the “restoration of leptin-stimulated STAT3 activation in presence of human CRP, Example 8 comparison” value (from here on “restoration … Example 8 comparison”) was “failed to restore”.

As for “human serum amyloid P component: control serum protein circulating at much higher concentrations than CRP [reference compound]”, the “effect of control serum protein on leptin-induced STAT3 phosphorylation / leptin signaling” value in test [2] was “did not influence leptin signaling”.

Consider “KVQDDTKTLIKTIVTRINDISHTQS (listed as Homo sapiens) [polypeptide B, chemically synthesized human leptin-derived polypeptide, residues 26 to 50]”, for which, in the test with human CRP, the “effect of polypeptide by itself on STAT phosphorylation” value (“effect of polypeptide by itself” below) was “did not induce any changes; also recorded: does not have any effect”; the “blocking of the inhibitory effect of human CRP on leptin signaling (STAT3 tyrosine phosphorylation)” value was “able to block the inhibitory effect of human CRP and to restore leptin signaling”.

As for “LAFSKSCHLPWASGLETLDSLGGVLEA (listed as Homo sapiens) [polypeptide E, chemically synthesized human leptin-derived polypeptide, residues 111 to 137]”, in the test on ob/ob mice [3], the “restoration of satiety and weight-reducing effects of human leptin (food intake, body weight)” value is recorded as “able to restore both of these functions”. In addition, the “restoration of satiety and weight-reducing effects of human leptin (food intake, body weight)” value in the test with ob/ob mice [3] (listed as Peptide-E) is “restored the physiological effects of human leptin”. In the test with ob/ob mice [3] (end of infusion, high dosage Pep-E), the “restoration of effect of human leptin on blood glucose” value was “able to restore the beneficial effect”. In the test with human CRP, the “effect of polypeptide by itself” value is listed as “did not induce any changes; also recorded: does not have any effect”; the “restoration … Example 8 comparison” value is given as “able to restore”; the “blocking of the inhibitory effect of human CRP on leptin signaling (STAT3 tyrosine phosphorylation)” value was “able to block the inhibitory effect of human CRP and to restore leptin signaling”. In the test with human CRP (listed as Peptide-E), the “effect of polypeptide by itself” value is reported as “did not induce any changes” and the “restoration … Example 8 comparison” value is recorded as “blocked the inhibitory effect”.

Turning to “NH2—S—C—H-L-P—W—COOH (H-SCHLPW-OH) [hexamer, hexamer disclosed in U.S. Pat. No. 6,777,388, reference compound]”, the entries for the “restoration … Example 8 comparison” value in the test with human CRP and with human CRP (listed as L-form) were “unable to block” and “failed to restore”, respectively.

Take “VSSKQKVTGLDFIPGLHPILTLSKM (listed as Homo sapiens) [polypeptide C1, chemically synthesized human leptin-derived polypeptide, residues 51 to 75]”: the “concentration at which the maximal effect can be reached” value with human CRP (FIG. 9A) is listed as 50 nM. Also, in the test with human CRP (FIG. 9B), the “effect of higher concentration” value is reported as “does not further improve its effect”. In addition, the “relative effectiveness in blocking the CRP activity on leptin” value with human CRP (compared with the other polypeptides) was “more effective at a lower concentration”. In the test with human CRP, the “effect of polypeptide by itself” value is “did not induce any changes; also recorded: does not have any effect”; the “blocking of the inhibitory effect of human CRP on leptin signaling (STAT3 tyrosine phosphorylation)” value was “able to block the inhibitory effect of human CRP and to restore leptin signaling”.

B1: mouse leptin (ligand, UniProt P41160 22-167, looked up)
chain: VPIQKVQDDTKTLIKTIVTRINDISHTQSVSAKQRVTGLDFIPGLHPILSLSKMDQTLAVYQQVLTSLPSQNVLQIANDLENLRDLLHLLAFSKSCSLPQTSGLQKPESLDGVLEASLYSTEVVALSRLQGSLQDILQQLDVSPEC
modifications: 125I-labelled in the receptor binding assay of FIG. 4B
notes: also called murine-leptin; recombinant mouse leptin
As for B1, in the test with rat C-reactive protein, the binding result is “binds”.

B2: Mouse leptin: mouse recombinant leptin (protein)
chain: B1 chain
As for B2, in the test on ob/ob mice [4] (mouse leptin i.c.v. after PBS), the “decrease of food intake, PBS pre-injection” value amounted to 32.9% and the “reduction of body weight, PBS pre-injection” value stood at 1.80%. In the test on ob/ob mice [4] (setting [5]), the “decrease of food intake, human CRP pre-injection” value came out at 32.4% and the “reduction of body weight, human CRP pre-injection” value came out at 1.76%.

B3: human C-reactive protein (other, UniProt P02741 19-224, looked up)
chain: T1 sequence (P02741 19-224)
notes: also called human CRP; CRP
One may read the IC50 as the point on the concentration scale where inhibition reaches its midpoint. A lower IC50 goes with inhibition by little substance. Regarding B3, in the test with human leptin, the IC50 was ~0.08 µg/mL and the “molecular ratio (CRP:leptin) at the IC50” value stood at 5.8.

Values taken from US20070218504A1, “HUMAN LEPTIN-DERIVED POLYPEPTIDES AND USES THEREOF” (UNIVERSITY OF PITTSBURGH, priority 2006, published 2007).
